The labels stand for the following.
T1: human beta 2m-HLA-A2.1 (alpha 1, alpha 2)-H-2 Db (alpha 3 transmembrane cytoplasmic; HHD) monochain (human; mouse, UniProt P61769 21-119; P01899 207-362)
T1 chain (looked up): not shown

The text below walks through data of patent US20110262471A1 (ONCOTHERAPY SCIENCE, published 2011).

This test has as its target T1, human beta 2m-HLA-A2.1 (alpha 1, alpha …). Description: cell-based or functional assay.
Consider AQPDTAPLPV [RAB6KIFL-A2-10-284 peptide], for which the “IFN-gamma ELISPOT of CD4- spleen cells of immunized HLA-A2.1 (HHD) Tgm, in response to BM-DCs pulsed with the peptide” value (“IFN-gamma ELISPOT” for short) turned out to be 141 spot counts/well.

Regarding LLSDDDVVV [RAB6KIFL-A2-9-12 peptide], the “IFN-gamma ELISPOT” value was found to be 149 spot counts/well. As for CIAEQYHTV [RAB6KIFL-A2-9-809 peptide], the “IFN-gamma ELISPOT” value amounted to 117 spot counts/well.
